Drawing on patent publication US20250066503A1, “CELL INJURY INDUCING THERAPEUTIC DRUG FOR USE IN CANCER THERAPY” (CHUGAI SEIYAKU KABUSHIKI KAISHA, priority 2016, published 2025), this text covers Kd for 21 molecules.

This assay has as its target T1, human GPC3 (human, UniProt P51654 25-563).
T1 construct: range 25-563; soluble analyte; also called soluble human GPC3; glypican 3
Briefly: SPR.

T1 sequence (P51654 25-563 limits assumed): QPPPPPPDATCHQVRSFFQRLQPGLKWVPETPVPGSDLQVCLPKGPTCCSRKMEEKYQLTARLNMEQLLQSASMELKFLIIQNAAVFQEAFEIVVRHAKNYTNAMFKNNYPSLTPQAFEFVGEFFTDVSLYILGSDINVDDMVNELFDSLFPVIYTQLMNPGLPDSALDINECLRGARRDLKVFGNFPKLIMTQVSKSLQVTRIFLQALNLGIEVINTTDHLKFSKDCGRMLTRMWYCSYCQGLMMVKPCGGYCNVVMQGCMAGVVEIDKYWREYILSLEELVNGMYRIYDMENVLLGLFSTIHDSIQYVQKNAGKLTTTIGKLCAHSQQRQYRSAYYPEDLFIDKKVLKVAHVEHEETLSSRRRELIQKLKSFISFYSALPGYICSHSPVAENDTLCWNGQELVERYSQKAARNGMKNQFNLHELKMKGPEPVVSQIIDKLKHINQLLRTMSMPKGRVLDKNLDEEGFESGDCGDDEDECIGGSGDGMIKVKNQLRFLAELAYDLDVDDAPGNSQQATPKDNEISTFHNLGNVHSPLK

B1: GCH003-G1dh/none-Hi-Kn010G3/L0000-k0 (antibody, V domains shown)
VH: QVQLVQSGAEVKKPGASVKVSCKASGYTFTDYEMHWIRQPPGQGLEWIGAIDGDTPDTAYSQKFKGRVTLTADKSTSTAYMELSSLTSEDTAVYYCTRFYSYTYWGQGTLVTVSS
VL: DIVMTQSPLSLPVTPGEPASISCRSSQSLVHSNRNTYLHWYQQKPGQAPRLLIYKVSNRFSGVPDRFSGSGSGTDFTLKISRVEAEDVGVYYCGQGTQVPYTFGQGTKLEIKR
notes: one-arm
Consider B1, for which the dissociation constant Kd amounted to 5.2 nM.

B2: GCH016-G1dh/none-Hi-Kn010G3/L0000-k0 (antibody, V domains shown)
VH: QVQLVQSGAEVKKPGASVKVSCKASGYTFTDYEMHWIRQPPGQGLEWIGAIDGKTPDTAYEQKFQDRVTLTADKSTSTAYMELSSLTSEDTAVYYCTRFYSYTYWGQGTLVTVSS
VL: DIVMTQSPLSLPVTPGEPASISCRSSQSLVHSNRNTYLHWYQQKPGQAPRLLIYKVSNRFSGVPDRFSGSGSGTDFTLKISRVEAEDVGVYYCGQGTQVPYTFGQGTKLEIKR
notes: one-arm
The molecule B2 came in with a Kd of 4.59 nM.

B3: GCH032-G1dh/none-Hi-Kn010G3/L0000-k0 (antibody, V domains shown)
VH: QVQLVQSGAEVKKPGASVKVSCKASGYTFTDYEMHWIRQPPGQGLEWIGAIDGKTPDTAYSEKFKGRVTLTADKSTSTAYMELSSLTSEDTAVYYCTRFYSYTYWGQGTLVTVSS
VL: DIVMTQSPLSLPVTPGEPASISCRSSQSLVHSNRNTYLHWYQQKPGQAPRLLIYKVSNRFSGVPDRFSGSGSGTDFTLKISRVEAEDVGVYYCGQGTQVPYTFGQGTKLEIKR
notes: one-arm
Turning to B3, the equilibrium dissociation constant (Kd) worked out at 5.74 nM.

B4: GCH008-G1dh/none-Hi-Kn010G3/L0000-k0 (antibody, V domains shown)
VH: QVQLVQSGAEVKKPGASVKVSCKASGYTFTDYEMHWIRQPPGQGLEWIGAIDGETPDTAYSQKFKGRVTLTADKSTSTAYMELSSLTSEDTAVYYCTRFYSYTYWGQGTLVTVSS
VL: DIVMTQSPLSLPVTPGEPASISCRSSQSLVHSNRNTYLHWYQQKPGQAPRLLIYKVSNRFSGVPDRFSGSGSGTDFTLKISRVEAEDVGVYYCGQGTQVPYTFGQGTKLEIKR
notes: one-arm
On to B4, for which the equilibrium dissociation constant (Kd) is 5.55 nM.

B5: GCH014-G1dh/none-Hi-Kn010G3/L0000-k0 (antibody, V domains shown)
VH: QVQLVQSGAEVKKPGASVKVSCKASGYTFTDYEMHWIRQPPGEGLEWIGAIDGKTPDTAYEQKFKGRVTLTADKSTSTAYMELSSLTSEDTAVYYCTRFYSYTYWGQGTLVTVSS
VL: DIVMTQSPLSLPVTPGEPASISCRSSQSLVHSNRNTYLHWYQQKPGQAPRLLIYKVSNRFSGVPDRFSGSGSGTDFTLKISRVEAEDVGVYYCGQGTQVPYTFGQGTKLEIKR
notes: one-arm
On to B5, for which the affinity, expressed as Kd, was 4.2 nM.

B6: GCH034-G1dh/none-Hi-Kn010G3/L0000-k0 (antibody, V domains shown)
VH: QVQLVQSGAEVKKPGASVKVSCKASGYTFTDYEMHWIRQPPGQGLEWIGAIDGKTPDTAYSQKFEGRVTLTADKSTSTAYMELSSLTSEDTAVYYCTRFYSYTYWGQGTLVTVSS
VL: DIVMTQSPLSLPVTPGEPASISCRSSQSLVHSNRNTYLHWYQQKPGQAPRLLIYKVSNRFSGVPDRFSGSGSGTDFTLKISRVEAEDVGVYYCGQGTQVPYTFGQGTKLEIKR
notes: one-arm
B6 registered a dissociation constant Kd of 5.09 nM.

B7: GCH007-G1dh/none-Hi-Kn010G3/L0000-k0 (antibody, V domains shown)
VH: QVQLVQSGAEVKKPGASVKVSCKASGYTFTDYEMHWIRQPPGQGLEWIGAIDGKTPDTAYSDKFKGRVTLTADKSTSTAYMELSSLTSEDTAVYYCTRFYSYTYWGQGTLVTVSS
VL: DIVMTQSPLSLPVTPGEPASISCRSSQSLVHSNRNTYLHWYQQKPGQAPRLLIYKVSNRFSGVPDRFSGSGSGTDFTLKISRVEAEDVGVYYCGQGTQVPYTFGQGTKLEIKR
notes: one-arm
B7 gave a Kd of 4.93 nM.

B8: GCH026-G1dh/none-Hi-Kn010G3/L0000-k0 (antibody, V domains shown)
VH: QVQLVQSGAEVKKPGASVKVSCKASGYTFTDYEMHWIRQPPGQGLEWIGAIDGETPDTAYSESFKGRVTLTADKSTSTAYMELSSLTSEDTAVYYCTRFYSYTYWGQGTLVTVSS
VL: DIVMTQSPLSLPVTPGEPASISCRSSQSLVHSNRNTYLHWYQQKPGQAPRLLIYKVSNRFSGVPDRFSGSGSGTDFTLKISRVEAEDVGVYYCGQGTQVPYTFGQGTKLEIKR
notes: one-arm
As for B8, binding was put at a Kd of 5.17 nM.

B9: GCH005-G1dh/none-Hi-Kn010G3/L0000-k0 (antibody, V domains shown)
VH: QVQLVQSGAEVKKPGASVKVSCKASGYTFTDYEMHWIRQPPGQGLEWIGAIDGKTPDTAESQKFKGRVTLTADKSTSTAYMELSSLTSEDTAVYYCTRFYSYTYWGQGTLVTVSS
VL: DIVMTQSPLSLPVTPGEPASISCRSSQSLVHSNRNTYLHWYQQKPGQAPRLLIYKVSNRFSGVPDRFSGSGSGTDFTLKISRVEAEDVGVYYCGQGTQVPYTFGQGTKLEIKR
notes: one-arm
B9: the dissociation constant (Kd) amounted to 5.32 nM.

B10: GCH006-G1dh/none-Hi-Kn010G3/L0000-k0 (antibody, V domains shown)
VH: QVQLVQSGAEVKKPGASVKVSCKASGYTFTDYEMHWIRQPPGQGLEWIGAIDGKTPDTAYEQKFKGRVTLTADKSTSTAYMELSSLTSEDTAVYYCTRFYSYTYWGQGTLVTVSS
VL: DIVMTQSPLSLPVTPGEPASISCRSSQSLVHSNRNTYLHWYQQKPGQAPRLLIYKVSNRFSGVPDRFSGSGSGTDFTLKISRVEAEDVGVYYCGQGTQVPYTFGQGTKLEIKR
notes: one-arm
In turn, B10 displayed a Kd of 4.06 nM.

B11: GCH029-G1dh/none-Hi-Kn010G3/L0000-k0 (antibody, V domains shown)
VH: QVQLVQSGAEVKKPGASVKVSCKASGYTFEDYEMHWIRQPPGQGLEWIGAIDGKTPDTAYSQKFKGRVTLTADKSTSTAYMELSSLTSEDTAVYYCTRFYSYTYWGQGTLVTVSS
VL: DIVMTQSPLSLPVTPGEPASISCRSSQSLVHSNRNTYLHWYQQKPGQAPRLLIYKVSNRFSGVPDRFSGSGSGTDFTLKISRVEAEDVGVYYCGQGTQVPYTFGQGTKLEIKR
notes: one-arm
For B11, binding was put at a Kd of 5.01 nM.

B12: GCH035-G1dh/none-Hi-Kn010G3/L0000-k0 (antibody, V domains shown)
VH: QVQLVQSGAEVKKPGASVKVSCKASGYTFTDYEMHWIRQPPGQGLEWIGAIDGKTPDTAYSQKFKGRVELTADKSTSTAYMELSSLTSEDTAVYYCTRFYSYTYWGQGTLVTVSS
VL: DIVMTQSPLSLPVTPGEPASISCRSSQSLVHSNRNTYLHWYQQKPGQAPRLLIYKVSNRFSGVPDRFSGSGSGTDFTLKISRVEAEDVGVYYCGQGTQVPYTFGQGTKLEIKR
notes: one-arm
On to B12, for which the dissociation constant Kd is 4.94 nM.

B13: GCH013-G1dh/none-Hi-Kn010G3/L0000-k0 (antibody, V domains shown)
VH: QVQLVQSGAEVKKPGASVTVSCKASGYTFTDYEMHWIRQPPGQGLEWIGAIDGKTPDTAYEQKFKGRVTLTADKSTSTAYMELSSLTSEDTAVYYCTRFYSYTYWGQGTLVTVSS
VL: DIVMTQSPLSLPVTPGEPASISCRSSQSLVHSNRNTYLHWYQQKPGQAPRLLIYKVSNRFSGVPDRFSGSGSGTDFTLKISRVEAEDVGVYYCGQGTQVPYTFGQGTKLEIKR
notes: one-arm
Consider B13, for which the Kd stood at 4.44 nM.

B14: GCH015-G1dh/none-Hi-Kn010G3/L0000-k0 (antibody, V domains shown)
VH: QVQLVQSGAEVKKPGASVKVSCKASGYTFTDYEMHWIRQPPGQGLEWIGAIDGKTPDTAYEESFKGRVTLTADKSTSTAYMELSSLTSEDTAVYYCTRFYSYTYWGQGTLVTVSS
VL: DIVMTQSPLSLPVTPGEPASISCRSSQSLVHSNRNTYLHWYQQKPGQAPRLLIYKVSNRFSGVPDRFSGSGSGTDFTLKISRVEAEDVGVYYCGQGTQVPYTFGQGTKLEIKR
notes: one-arm
As to B14, the Kd worked out at 4.14 nM.

B15: GCH019-G1dh/none-Hi-Kn010G3/L0000-k0 (antibody, V domains shown)
VH: QVQLVQSGAEVKKPGASVTVSCKASGYTFTDYEMHWIRQPPGEGLEWIGAIDGKTPDTAYEQKFKGRVTLTADKSTSTAYMELSSLTSEDTAVYYCTRFYSYTYWGQGTLVTVSS
VL: DIVMTQSPLSLPVTPGEPASISCRSSQSLVHSNRNTYLHWYQQKPGQAPRLLIYKVSNRFSGVPDRFSGSGSGTDFTLKISRVEAEDVGVYYCGQGTQVPYTFGQGTKLEIKR
notes: one-arm
B15 had a Kd of 4.36 nM.

B16: GCH023-G1dh/none-Hi-Kn010G3/L0000-k0 (antibody, V domains shown)
VH: QVQLVQSGAEVKKPGASVKVSCKASGYTFTDYEMHWIRQPPGEGLEWIGAIDGETPDTAYSQKFKGRVTLTADKSTSTAYMELSSLTSEDTAVYYCTRFYSYTYWGQGTLVTVSS
VL: DIVMTQSPLSLPVTPGEPASISCRSSQSLVHSNRNTYLHWYQQKPGQAPRLLIYKVSNRFSGVPDRFSGSGSGTDFTLKISRVEAEDVGVYYCGQGTQVPYTFGQGTKLEIKR
notes: one-arm
In the case of B16, binding was characterised by a dissociation constant (Kd) of 4.94 nM.

B17: GCH027-G1dh/none-Hi-Kn010G3/L0000-k0 (antibody, V domains shown)
VH: QVQLVQSGAEVKKPGASVKVSCKASGYEFTDYEMHWIRQPPGQGLEWIGAIDGKTPDTAYSQKFKGRVTLTADKSTSTAYMELSSLTSEDTAVYYCTRFYSYTYWGQGTLVTVSS
VL: DIVMTQSPLSLPVTPGEPASISCRSSQSLVHSNRNTYLHWYQQKPGQAPRLLIYKVSNRFSGVPDRFSGSGSGTDFTLKISRVEAEDVGVYYCGQGTQVPYTFGQGTKLEIKR
notes: one-arm
B17: the Kd stood at 3.83 nM.

B18: GCH025-G1dh/none-Hi-Kn010G3/L0204-k0 (antibody, V domains shown)
VH: QVQLVQSGAEVKKPGASVTVSCKASGYTFTDYEMHWIRQPPGEGLEWIGAIDGETPDTAYSQKFKGRVTLTADKSTSTAYMELSSLTSEDTAVYYCTRFYSYTYWGQGTLVTVSS
VL: DIVMTQSPLSLPVTPGEPASISCRSSQSPVHSNRNTYLHWYQQKPGQAPRLLIYKVSNRFRGVPDRFSGSGSGTDFTLKISRVEAEDVGVYYCGQGTQVPYTFGQGTKLEIKR
notes: one-arm
As for B18, the equilibrium dissociation constant (Kd) worked out at 0.67 nM.

B19: GCH022-G1dh/none-Hi-Kn010G3/L0000-k0 (antibody, V domains shown)
VH: QVQLVQSGAEVKKPGASVTVSCKASGYTFTDYEMHWIRQPPGQGLEWIGAIDGETPDTAYSQKFKGRVTLTADKSTSTAYMELSSLTSEDTAVYYCTRFYSYTYWGQGTLVTVSS
VL: DIVMTQSPLSLPVTPGEPASISCRSSQSLVHSNRNTYLHWYQQKPGQAPRLLIYKVSNRFSGVPDRFSGSGSGTDFTLKISRVEAEDVGVYYCGQGTQVPYTFGQGTKLEIKR
notes: one-arm
Consider B19, for which binding was put at a Kd of 4.92 nM.

B20: GCH012-G1dh/none-Hi-Kn010G3/L0000-k0 (antibody, V domains shown)
VH: QVQLVQSGAEVKKPGASVKVSCKASGYTFTDYEMHWIRQPPGQGLEWIGAIDGKTPDTAEEQKFKGRVTLTADKSTSTAYMELSSLTSEDTAVYYCTRFYSYTYWGQGTLVTVSS
VL: DIVMTQSPLSLPVTPGEPASISCRSSQSLVHSNRNTYLHWYQQKPGQAPRLLIYKVSNRFSGVPDRFSGSGSGTDFTLKISRVEAEDVGVYYCGQGTQVPYTFGQGTKLEIKR
notes: one-arm
B20 registered a Kd of 5.4 nM.

B21: GCH010-G1dh/none-Hi-Kn010G3/L0000-k0 (antibody, V domains shown)
VH: QVQLVQSGAEVKKPGASVKVSCKASGYTFTDYEMHWIRQPPGQGLEWIGAIDGDTPDTAYEQKFKGRVTLTADKSTSTAYMELSSLTSEDTAVYYCTRFYSYTYWGQGTLVTVSS
VL: DIVMTQSPLSLPVTPGEPASISCRSSQSLVHSNRNTYLHWYQQKPGQAPRLLIYKVSNRFSGVPDRFSGSGSGTDFTLKISRVEAEDVGVYYCGQGTQVPYTFGQGTKLEIKR
notes: one-arm
Regarding B21, the affinity, expressed as Kd, was 4.12 nM.
